As usually defined, the Ki is the equilibrium dissociation constant of an inhibitor or competing ligand from its target. Lower therefore signals a stronger hold on the target.

Positions count from the first letter of the chain named. Names may count otherwise.

This note sets out measurements from paper PMC2735620.

The test deals with Gαi/13 (N-terminally hexahistidine tagged chimera), AlF4−-activated. The test can be described thus: flow cytometry protein interaction assay. In general terms: In flow cytometry, cells or beads pass a laser one at a time.

B1: LARG RH/DH/PH-F1098D (domain or fragment)
chain: SPSTRIAPHIIGAEDDDFGTEHEQINGQCSCFQSIELLKSRPAHLAVFLHHVVSQFDPATLLCYLYSDLYKHTNSKETRRIFLEFHQFFLDRSAHLKVSVPDEMSADLEKRRPELIPEDLHRHYIQTMQERVHPEVQRHLEDFRQKRSMGLTLAESELTKLDAERDKDRLTLEKERTCAEQIVAKIEEVLMTAQAVEEDKSSTMQYVILMYMKHLGVKVKEPRNLEHKRGRIGFLPKIKQSMKKDKEGEEKGKRRGFPSILGPPRRPSRHDNSAIGRAMELQKARHPKHLSTPSSVSPEPQDSAKLRQSGLANEGTDAGYLPANSMSSVASGASFSQEGGKENDTGSKQVGETSAPGDTLDGTPRTLNTVFDFPPPPLDQVQEEECEVERVTEHGTPKPFRKFDSVAFGESQSEDEQFENDLETDPPNWQQLVSREVLLGLKPCEIKRQEVINELFYTERAHVRTLKVLDQVFYQRVSREGILSPSELRKIFSNLEDILQLHIGLNEQMKAVRKRNETSVIDQIGEDLLTWFSGPGEEKLKHAAATFCSNQPFALEMIKSRQKKDSRFQTFVQDAESNPLCRRLQLKDIIPTQMQRLTKYPLLLDNIAKYTEWPTEREKVKKAADHCRQILNYVNQAVKEAENKQRLEDYQRRLDTSSLKLSEYPNVEELRNLDLTKRKMIHEGPLVWKVNRDKTIDLYTLLLEDILVLLQKQDDRLVLRCHSKILASTADSKHTFSPVIKLSTVLVRQVATDNKALDVISMSDNGAQIYELVAQTVSEKTVWQDLICRMAASVKEQS
As to B1, the Ki turned out to be 20 nM.

B2: LARG RH/DH/PH-E354K (domain or fragment)
chain: B1 chain with E14K, D758F
Take B2: the Ki came to 540 nM.
